Test results taken from patent US12569538B2, “DPEP-1 binding compositions and methods of use” (Arch Biopartners, Inc., priority 2015, dated 2026).

Experiments:
Human DPEP2 = target: T1, Human DPEP2 (Homo sapiens, UniProt Q9H4A9); test: Binding of Alexa-488 conjugated peptide to Cos-1 cells transfected with human DPEP2
T1 construct: expressed in transfected cells; host or cells: Cos-1
Procedure: (§1) Cos-1 cells were transiently transfected with either […] of human DPEP-1, DPEP2, or DPEP3 gene using lipofectamine 2000 (Invitrogen) reagent in OptiMEM medium. 24 hours after transfection, DPEP-1, DPEP2, or DPEP3 expressing cells were re-seeded on collagen coated (neutralized) wells in 24 well plates and allowed to grow for 24 hours at 37º° C. 24 hours after seeding, media was removed and cells were washed with PBS. Cells were blocked with FBS/NBSA/Tween in PBS for 30 minutes on ice. Cells were then washed with PBS and incubated with LSALT or GFE-1, conjugated with Alexa-488 (green). After incubation, cells were washed with PBS and stained with DAPI for 5 minutes on ice. Cells were then washed with PBS and fixed using 4% paraformaldehyde and immunofluorescence microscopy was performed to assess binding. Representative photomicrographs are shown for each experimental condition (n=3) in FIG. 6A. Proteins from DPEP-1. DPEP2 and DPEP3 transfected cells were isolated after 48 hours using octyl-glucoside/RIPA lysis buffer and western blot analysis was performed to assess DPEP-1, DPEP2 and DPEP3 protein expression using specific antibodies; DPEP-1 antibody (Sigma), DPEP2 (Abcam) and DPEP3 (Santacruz). Blots were stripped and reprobed with an anti-P-actin.

Human DPEP-3 = target: T2, Human DPEP-3 (Homo sapiens, UniProt Q9H4B8); test: Binding of Alexa-488 conjugated peptide to Cos-1 cells transfected with human DPEP3
T2 construct: expressed in transfected cells; host or cells: Cos-1
T2 sequence (Q9H4B8 36-463): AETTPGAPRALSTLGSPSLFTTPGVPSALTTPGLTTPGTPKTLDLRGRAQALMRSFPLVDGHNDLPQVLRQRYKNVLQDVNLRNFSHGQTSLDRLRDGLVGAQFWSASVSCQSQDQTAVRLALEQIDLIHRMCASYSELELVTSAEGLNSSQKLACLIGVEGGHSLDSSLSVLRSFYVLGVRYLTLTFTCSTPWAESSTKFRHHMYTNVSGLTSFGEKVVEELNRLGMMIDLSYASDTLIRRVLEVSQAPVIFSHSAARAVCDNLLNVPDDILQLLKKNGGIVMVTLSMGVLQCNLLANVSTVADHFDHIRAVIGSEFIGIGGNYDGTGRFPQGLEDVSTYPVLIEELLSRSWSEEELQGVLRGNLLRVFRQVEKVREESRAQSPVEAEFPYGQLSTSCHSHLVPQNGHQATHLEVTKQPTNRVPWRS
Procedure: as §1

[1] = test system: neutrophil adhesion in the hepatic sinusoids; test: Neutrophil adhesion in hepatic sinusoids after LPS, intravital microscopy; type: in vivo, LysMeGFP mice; conditions: for neutrophil adhesion in the hepatic sinusoids in the presence of LPS: 1 mM peptide intravenous 5 minutes after 0.5 mg/kg LPS intraperitoneal, liver imaged after 3 hours
Procedure: Six to ten week old LysMeGFP mice were injected with 1 mM dose of LSALT or GFE-1 peptides (intravenous) 5 minutes after the injection of 0.5 mg/kg of lipopolysaccharide (intraperitoneal). After 3 hours, animals were injected with ketamine and xylazine to provide general anesthesia. Fluorescently conjugated F4/80 and PECAM-1 antibodies were then administered via jugular vein cannulation and intravital spinning disk confocal microscopy was performed. The livers were imaged for an hour and the number of neutrophils were counted at different time points. Neutrophils which were stationary for >30 seconds in the liver sinusoids were counted as adherent cells. Data are representative of three independent experiments. An unpaired 2-tailed student's t-test was performed comparing LSALT, GFE-1 or control treated group against the LPS treated group (*p<0.05).

[2] = target: T3, renal rat membrane dipeptidase (DPEP-1) (Rattus norvegicus, UniProt P31430); test: Peptide binding to Cos-7 cells transfected with rat DPEP-1, immunofluorescence microscopy; conditions: rat DPEP-1 transfected Cos-7 cells; fluorescently conjugated peptide on ice 30 minutes
T3 construct: expressed in transfected cells; host or cells: Cos-7
T3 sequence (P31430 17-384): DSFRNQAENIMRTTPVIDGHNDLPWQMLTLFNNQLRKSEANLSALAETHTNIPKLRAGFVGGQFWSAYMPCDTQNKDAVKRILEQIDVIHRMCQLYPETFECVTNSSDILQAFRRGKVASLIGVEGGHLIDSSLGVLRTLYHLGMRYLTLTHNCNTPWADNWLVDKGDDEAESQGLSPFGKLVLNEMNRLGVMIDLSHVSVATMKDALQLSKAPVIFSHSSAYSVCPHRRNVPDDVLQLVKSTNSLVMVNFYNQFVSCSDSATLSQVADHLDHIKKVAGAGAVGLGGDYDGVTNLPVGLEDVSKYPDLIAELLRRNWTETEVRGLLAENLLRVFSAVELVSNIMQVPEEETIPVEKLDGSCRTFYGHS
Procedure: Cos-7 cells were transiently transfected with […] of renal rat membrane dipeptidase (DPEP-1) plasmid using lipofectamine 2000 (Invitrogen) reagent. 48 hours after transfection, media was removed and cells were washed with PBS. Cells were incubated with LSALT conjugated with Alexa-488 (Green), GFE-1 peptide conjugated with Alexa-568 (Red) or control peptide conjugated with Alexa-488 (Green) on ice for 30 minutes. Cells were washed and fixed using 4% paraformaldehyde and immunofluorescence microscopy was performed to assess binding. Shown are representative photomicrographs of each experimental condition (n=2).

DPEP-1 = conditions: cited from earlier work
rat DPEP-1 = target: T4, rat DPEP-1 (Rattus norvegicus, UniProt P31430); test: Binding of Alexa-488 conjugated peptide to Cos-1 cells transfected with rat DPEP-1 (immunofluorescence); conditions: Cos-1 cells transiently transfected with rat DPEP-1 cDNA, 30 minutes on ice
T4 construct: expressed in transfected cells; host or cells: Cos-1
T4 sequence (P31430 17-384): as above
Procedure: (§2) Cos-1 cells were transiently transfected with either 3 or 5|ig of membrane dipeptidase (DPEP-1) cDNA corresponding to the rat (Shown in FIG. 5A) or human DPEP-1 (Shown in FIG. 5B) gene using lipofectamine 2000 (Invitrogen) reagent in OptiMEM medium 24 hours after transfection, DPEP-1 expressing cells were re-seeded on collagen coated (neutralized) wells in 24 well plates and allowed to grow for 24 hours at 37 °C. 24 hours after seeding, media was removed and cells were washed with PBS. Cells were blocked with FBS/NBSA/Tween in PBS for 30 minutes on ice. Cells were then washed with PBS and incubated with Alexa-488 (green) conjugated LSALT, GFE-1, control peptide or DPEP-1 antibody (1/100) (Sigma) on ice for 30 minutes. […] After incubation, cells were washed with PBS and treated with 10 mg/ml biotin transfer peptide (LSALT, GFE-1 or Control Peptide (KGAL)] for 10 minutes. Cells were then washed with PBS and biotin transfer was enabled by UV activation of the aryl azide groups for 15 minutes at 363 nm. Residual fluid was removed and monolayers were lysed either with octyl-glucoside/RIPA or 8M urea. Isolated supernatants were rotated with […] of neutr-avidin agarose beads at 4° C. for 24 hours. Beads were washed with corresponding buffers, boiled in Laemmli buffer and analyzed by western blot using a DPEP-1 specific antibody (Proteintech).

human DPEP-1 = target: T5, human DPEP-1 (Homo sapiens, UniProt P16444); test: Binding of Alexa-488 conjugated peptide to Cos-1 cells transfected with human DPEP-1 (immunofluorescence, biotin transfer); conditions: Cos-1 cells transiently transfected with human DPEP-1 cDNA, 30 minutes on ice
T5 construct: expressed in transfected cells; host or cells: Cos-1
T5 sequence (P16444 17-385): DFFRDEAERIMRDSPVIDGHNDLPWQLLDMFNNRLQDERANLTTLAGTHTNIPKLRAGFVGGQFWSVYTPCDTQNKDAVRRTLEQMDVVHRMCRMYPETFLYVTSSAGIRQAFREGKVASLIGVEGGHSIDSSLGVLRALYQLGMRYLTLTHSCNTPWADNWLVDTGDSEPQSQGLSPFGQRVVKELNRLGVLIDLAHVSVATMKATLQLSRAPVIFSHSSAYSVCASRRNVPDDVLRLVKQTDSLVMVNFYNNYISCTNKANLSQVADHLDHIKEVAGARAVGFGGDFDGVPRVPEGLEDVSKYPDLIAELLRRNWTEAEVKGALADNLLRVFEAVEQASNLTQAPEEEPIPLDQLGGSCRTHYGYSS
Procedure: as §2

[3] = target: T3, renal rat membrane dipeptidase (DPEP-1); test: Peptide binding to Cos-7 cells transfected with rat DPEP-1, flow cytometry; conditions: rat DPEP-1 transfected Cos-7 cells; Alexa-488 conjugated peptide on ice 30 minutes
Procedure: Cos-7 cells were transiently transfected with 5∧g of renal rat membrane dipeptidase (DPEP-1) plasmid using lipofectamine2000 (Invitrogen) reagent. 48 hours after transfection, cells were incubated with LSALT conjugated to Alexa-488 (green) on ice for 30 minutes. Cells were washed and flow cytometry was performed to assess binding Shown are single parameter histographs for each experimental condition (n=2).

[4] = target: T6, human membrane dipeptidase (DPEP-1) (Homo sapiens, UniProt P16444); test: Membrane dipeptidase enzyme activity assay, fluorimetric detection of D-Phe from Gly-D-Phe; type: biochemical; conditions: protein from human DPEP-1 transfected Cos-1 cells; Gly-D-Phe substrate, 37° C., 3 hours
T6 construct: expressed in transfected cells; host or cells: Cos-1 (protein lysate, octylglucoside)
T6 sequence (P16444 17-385): T5 sequence (P16444 17-385)
Procedure: Cos-1 cells were transiently transfected with […] of human membrane dipeptidase (DPEP-1) plasmid using lipofectamine 2000 (Invitrogen) reagent. 48 hours after transfection, media was removed and cells were washed with PBS. Proteins were isolated using octylglucoside in the absence of protease inhibitors. Membrane dipeptidase assay and the fluorimetric detection of D-Phe was performed exactly as described by Heywood and Hooper previously. In brief, proteins were first incubated with membrane dipeptidase substrate Gly-D-Phe either in the presence or absence of LSALT or GFE-1 peptide at 37° C. for 3 hours. The fluorescence signal generated from the conversion of D-Phe to […] in the presence of D-aminoacidoxidase and peroxidase was measured using a fluorescence plate reader.

[5] = test system: serum cytokines in response to LPS; test: Plasma cytokine levels after LPS, Luminex Cytokine Arrays; type: in vivo, SCID mice; conditions: LPS 0.5 mg/kg intraperitoneal 5 minutes prior to intravenous peptide; plasma at 4 hours
Procedure: 6-8 weeks old SCID mice were given an intraperitoneal injection of LPS (0.5 mg/kg) 5 minutes prior to intravenous injection of LSALT peptide or a control peptide. 4 hours following injection of LPS, blood was collected by cardiac puncture and changes in plasma cytokine levels were assessed using Luminex Cytokine Arrays. Bar graphs show the levels of different inflammatory mediators released in the plasma in the presence or absence of LSALT peptide and control peptide.
6-8 weeks old SCID mice were given an intraperitoneal injection of LPS (0.5 mg/kg) 5 minutes prior to intravenous injection of LSALT peptide or a control peptide. 4 hours following injection of LPS, blood was collected by cardiac puncture and changes in plasma cytokine levels were assessed using Luminex Cytokine Arrays. Bar graphs show the level of the anti-inflammatory cytokine IL-10 released in the plasma in LSALT peptide or control peptide in two independent experiments.

[6] = test system: B16-F10 murine melanoma cells; test: B16-F10 melanoma lung metastasis, syngeneic model; type: in vivo, C57-BL6 mice; conditions: 1 mM peptide intravenous 5 minutes before 100,000 B16-F10 cells; lungs harvested after 2 weeks
Procedure: 8-10 weeks old C57-BL6 mice (Charles River) were injected intravenously with 100,000 B16-F10 murine melanoma cells 5 minutes after the injection of either LSALT or GFE-1 peptide (1 mM) via intravenous tail injection. Animals were sacrificed after 2 weeks and lungs were harvested. Tissues were processed for histology as described before and bematoxylin-eosin staining was performed to assess tumor burden.

tumor cell line = test: Tumor burden in livers or lungs of animals injected with a tumor cell line; type: in vivo

T1 sequence (Q9H4A9 33-463): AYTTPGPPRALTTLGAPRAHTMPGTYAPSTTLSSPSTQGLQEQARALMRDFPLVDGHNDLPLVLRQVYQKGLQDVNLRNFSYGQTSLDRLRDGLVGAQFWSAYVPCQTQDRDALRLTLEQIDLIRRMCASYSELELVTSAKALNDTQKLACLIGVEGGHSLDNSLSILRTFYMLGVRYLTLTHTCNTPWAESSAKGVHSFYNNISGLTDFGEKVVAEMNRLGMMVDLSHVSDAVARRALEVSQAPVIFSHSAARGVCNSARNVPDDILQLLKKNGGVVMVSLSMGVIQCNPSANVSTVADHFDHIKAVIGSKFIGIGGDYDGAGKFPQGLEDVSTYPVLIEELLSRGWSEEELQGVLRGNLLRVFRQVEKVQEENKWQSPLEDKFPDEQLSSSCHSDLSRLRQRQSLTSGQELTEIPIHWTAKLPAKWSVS

Sequence | binding to human DPEP2 in vitro (Human DPEP2) | binding to human DPEP-3 in vitro (Human DPEP-3) | neutrophil adhesion in the hepatic sinusoids in the presence of LPS [1] | binding to Cos-7 cells with expression of DPEP-1 (immunofluorescence microscopy) [2] | DPEP-1 binding activity in lung microvasculature (DPEP-1) | binding to rat DPEP-1 (rat DPEP-1) | binding to human DPEP-1 (human DPEP-1) | neutrophil recruitment to the liver ([1]; mouse model of sepsis) | binding to Cos-7 cells with expression of DPEP-1 (flow cytometry) [3] | inhibition of membrane dipeptidase enzyme activity [4] | levels of serum cytokines (inflammatory mediators) in response to LPS [5] | production of the anti-inflammatory mediator IL-10 in response to LPS [5] | melanoma-lung metastasis [6] | tumor burden in the livers or lungs (tumor cell line)
CGFECVRQCPERC (listed as Homo sapiens) [GFE-1, reference compound] | do not Bind | do not Bind | inhibit neutrophil adhesion | enhanced the binding | having DPEP-1 binding activity | – | – | – | – | – | – | – | – | –
LSALTPSPSWLKYKAL (listed as Homo sapiens) | do not Bind | do not Bind | inhibit neutrophil adhesion | enhanced the binding | – | Bonds | Bonds | reduced neutrophil recruitment | enhanced the binding | does not inhibit | attenuates the levels | increases the production | Inhibits | dramatically reduce tumor burden
CGFELETC (listed as Homo sapiens) [GFE-2] | – | – | – | – | having DPEP-1 binding activity | – | – | – | – | – | – | – | – | –
